Target: the molecule itself
Experiment: non-reducing SDS-PAGE with Western blot; mouse tissue supernatants (70 μg), sample buffer without reducing agent, unboiled, 8% SDS-PAGE, blot probed with an RIβ-specific antibody

B1: RIβ from mouse brain tissue (natural protein, mouse (endogenous in mouse brain), UniProt P12849 1-381, looked up)
chain: MASPSCFHSEDEDSLKGCEMYVQKHGIQQVLKECIVHLCVAKPDRPLRFLREHFEKLEKEENRQILARQKSNSQCDSHDEEISPTPPNPVVKARRRRGGVSAEVYTEEDAVSYVRKVIPKDYKTMTALAKAISKNVLFSHLDDNERSDIFDAMFPVTHIGGETVIQQGNEGDNFYVIDQGEVDVYVNGEWVTNISEGGSFGELALIYGTPRAATVKAKTDLKLWGIDRDSYRRILMGSTLRKRKMYEEFLSKVSILESLEKWERLTVADALEPVQFEDGEKIVVQGEPGDDFYIITEGTASVLQRRSPNEEYVEVGRLGPSDYFGEIALLLNRPRAATVVARGPLKCVKLDRPRFERVLGPCSEILKRNIQRYNSFISLTV
modifications: disulfide bonded (dimer seen under non-reduced conditions)
notes: PKA regulatory subunit RIβ, endogenous in mouse brain, detected with an RIβ-specific antibody; source: endogenous, mouse brain homogenate (digitonin lysis buffer), supernatant
stoichiometry N: 2

From article PMC12535202, “N3A motifs in RIβ mediate allosteric crosstalk between cAMP and ATP in PKA activation” (Protein Science : A Publication of the Protein Society, 2025)
